Test results taken from patent US20130143798A1 (Novo Nordisk, published 2013).
Read-outs that look alike come from different tables or passages of the source. Numbered stars: 1 amine (or outer) side, 2 acyl side, 3 side chain; on linkers, the order of the positions; unused ones are H or OH. Square brackets hold non-standard residues; d marks the D form. Side chains are listed from the residue outwards. Ends that are not written are not given here. * marks the point of attachment. C18 diacid = O=C(O)CCCCCCCCCCCCCCCCC(=O)*; γGlu = O=C(O)[C@H](CCC(=O)[*:2])N[*:1]; AEEA = NCCOCCOCC(=O)O

Tests used:
glucagon receptor [1] = target: T1, glucagon receptor (UniProt P47871 26-477, limits assumed); assay: cell-based or functional assay
T1 sequence (P47871 26-477 limits assumed): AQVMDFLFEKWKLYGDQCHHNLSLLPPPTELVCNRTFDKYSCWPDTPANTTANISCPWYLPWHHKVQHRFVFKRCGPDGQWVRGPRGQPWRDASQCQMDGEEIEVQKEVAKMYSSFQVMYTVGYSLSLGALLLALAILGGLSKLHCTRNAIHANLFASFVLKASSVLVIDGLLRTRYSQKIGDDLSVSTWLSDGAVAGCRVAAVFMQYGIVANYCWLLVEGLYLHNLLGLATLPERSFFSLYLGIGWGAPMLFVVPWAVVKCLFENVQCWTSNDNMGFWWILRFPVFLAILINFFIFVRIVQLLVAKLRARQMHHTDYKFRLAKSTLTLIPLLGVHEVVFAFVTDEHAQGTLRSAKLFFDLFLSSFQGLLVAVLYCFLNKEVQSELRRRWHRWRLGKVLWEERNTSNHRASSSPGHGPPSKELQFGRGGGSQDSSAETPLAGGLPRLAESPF

glucagon receptor [2] = target: T1, glucagon receptor; assay: cell-based or functional assay; remark: listed apart in the source

Row | Assay (I) Glucagon [EC50] (glucagon receptor [1]) [nM] | Assay (I) Glucagon [EC50] (glucagon receptor [2]) [nM] | Binder
1 | 0.12 | – | HSQGTFTSDYSKYLDSRRAEEFVK([γGlu-γGlu-AEEA-γGlu-C18 diacid])WLLST
2 | 0.094 | – | HSQGTFTSDYSKYLDSRRAQDFVK([γGlu-γGlu-γGlu-C18 diacid])WLLST
3 | 1.58 | – | HSQGTFTSDYSK([γGlu-γGlu-AEEA-AEEA-γGlu-C18 diacid])YLDSRRAQDFVQWLLNP
4 | – | 0.155 | HSQGTFTSDYSKYLDSRRAQDFVQK([AEEA-AEEA-γGlu-C18 diacid])LLNT
5 | 0.189 | – | HSQGTFTSDYSKYLDSRRAQDFVQWLLK([γGlu-γGlu-AEEA-AEEA-γGlu-C18 diacid])P
6 | 0.156 | – | HSQGTFTSDYSKYLDSRRAQDFVK([γGlu-γGlu-AEEA-AEEA-γGlu-C18 diacid])WLLNP
7 | 0.095 | 0.095 | HSQGTFTSDYSKYLDSRRAQDFVQWLLNK([γGlu-γGlu-AEEA-AEEA-γGlu-C18 diacid])
8 | 0.128 | – | HSQGTFTSDYSKYLDSRRAQDFVQWLLK([γGlu-γGlu-AEEA-AEEA-γGlu-C18 diacid])TP
9 | 0.053 | – | HSQGTFTSDYSKYLDSRRAQEFVK([γGlu-γGlu-AEEA-γGlu-C18 diacid])WLLST
10 | 0.044 | – | HSQ[dF]TFTSDYSKYLDSRRAQDFVK([γGlu-γGlu-AEEA-AEEA-γGlu-C18 diacid])WLLST
11 | 0.127 | – | HSQGTFTSDYSRYLDSRRAQDFVK([γGlu-γGlu-AEEA-AEEA-γGlu-C18 diacid])WLLNT
12 | 0.307 | – | HSQGTFTSDYSKYLDSRRAEDFVK([γGlu-γGlu-AEEA-AEEA-γGlu-C18 diacid])WLLST
13 | 0.058 | – | HSQGTFTSDYSKYLDSRRAK([γGlu-γGlu-AEEA-AEEA-γGlu-C18 diacid])DFVQWLLNT
14 | 0.106 | – | HSQGTFTSDYSKYLDSRRAQDFVK([γGlu-AEEA-AEEA-γGlu-γGlu-C18 diacid])WLLST

Continued, binder first:

Row | Binder | Assay (I) Glucagon [EC50] (glucagon receptor [1]) [nM] | Assay (I) Glucagon [EC50] (glucagon receptor [2]) [nM]
15 | HSQGTFTSDYSKYLDK([γGlu-γGlu-AEEA-AEEA-γGlu-C18 diacid])RRAQEFVQRLLNT | 0.45 | –
16 | HSQGTFTSDYSKYLDK([AEEA-AEEA-γGlu-C18 diacid])KKAQEFVQWLLNT | – | 0.02
17 | HSQGTFTSEYSKYLDSRRAQDFVK([γGlu-γGlu-AEEA-γGlu-C18 diacid])WLLST | 2.2 | –
18 | HSQGTFTSDYSKYLDSRRAQDFVQWLLK([γGlu-AEEA-AEEA-γGlu-γGlu-C18 diacid])T | 0.093 | –
19 | HSQGTFTSDYSKYLDSRRAQDFVK([AEEA-AEEA-γGlu-γGlu-γGlu-C18 diacid])WLLST | 0.115 | –
20 | HSQGTFTSDYSKYLDK([AEEA-AEEA-γGlu-γGlu-γGlu-C18 diacid])RRAQDFVQWLLNT | 0.081 | –
21 | HSQGTFTSDYSRYLDSRRAQDFVQWLK([γGlu-γGlu-AEEA-AEEA-γGlu-C18 diacid])NP | 2.11 | –
22 | HSQGTFTSDYSKYLDSRRAQDFVHWLLNTK (C-terminal Lys (position 30): N-epsilon acylated with the substituent printed in the name) | 0.1 | –
23 | HSQGTFTSDYSKYLDK([γGlu-AEEA-AEEA-γGlu-γGlu-C18 diacid])RRAQDFVQWLLNT | 0.122 | –
24 | HSQGTFTSDYSKYLDSRRAQDFVQWLLK([AEEA-AEEA-γGlu-γGlu-γGlu-C18 diacid])T | 0.116 | –
25 | HSQGTFTSDYSKYLDK([γGlu-γGlu-AEEA-AEEA-γGlu-C18 diacid])RRAQDFVQWLLNT | 0.105 | –
26 | HSQGTFTSDYSKYLDSRRAQDFVQWLK([γGlu-γGlu-AEEA-AEEA-γGlu-C18 diacid])NP | 1.17 | –
27 | HSQGTFTSDYSKYLDSRRAQDFVQWLLK([γGlu-γGlu-AEEA-AEEA-γGlu-C18 diacid])T | 0.055 | 0.055
28 | HSQGTFTSDYSKYLDSRRAQDFVKWLLNTP (Lys 24: N-epsilon acylated with the substituent printed in the name) | 0.142 | –
29 | HSQGTFTSDYSKYLDSRRAQDFVQWLLK([AEEA-AEEA-γGlu-C18 diacid])T | – | 0.022
30 | HSQGTFTSDYSKYLDSRRAQDFVQWLLNTK (C-terminal Lys (position 30): N-epsilon acylated with the substituent printed in the name) [N^α-([Leu^27]Glucagonyl) …] | 0.056 | 0.056
31 | HSQGTFTSDYSKYLDSRRAQDFVQK([γGlu-γGlu-AEEA-AEEA-γGlu-C18 diacid])LLNT | 0.988 | –
32 | HSQGTFTSDYSKYLDSRRAQDFVQWLLK([γGlu-γGlu-γGlu-C18 diacid])T | 0.141 | –
